Consider 16 molecules from patent publication US20250049970A1, “DLL3 TARGETING PEPTIDES AND CONSTRUCTS THEREOF” (MARIANA ONCOLOGY INC., priority 2023, published 2025).

B1: SEQ ID NO 78 (peptide)
peptide: Ac-MVWVPCEWDDCFY-NH2
modifications: disulfide 6-11
SMILES: CSCC[C@H](NC(C)=O)C(=O)N[C@H](C(=O)N[C@@H](Cc1c[nH]c2ccccc12)C(=O)N[C@H](C(=O)N1CCC[C@H]1C(=O)N[C@H]1CSSC[C@@H](C(=O)N[C@@H](Cc2ccccc2)C(=O)N[C@@H](Cc2ccc(O)cc2)C(N)=O)NC(=O)[C@H](CC(=O)O)NC(=O)[C@H](CC(=O)O)NC(=O)[C@H](Cc2c[nH]c3ccccc23)NC(=O)[C@H](CCC(=O)O)NC1=O)C(C)C)C(C)C
B2: SEQ ID NO 72 (peptide)
peptide: Ac-MWTLCDTWDTCFP-NH2
modifications: disulfide 5-11
SMILES: CSCC[C@H](NC(C)=O)C(=O)N[C@@H](Cc1c[nH]c2ccccc12)C(=O)N[C@H](C(=O)N[C@@H](CC(C)C)C(=O)N[C@H]1CSSC[C@@H](C(=O)N[C@@H](Cc2ccccc2)C(=O)N2CCC[C@H]2C(N)=O)NC(=O)[C@H]([C@@H](C)O)NC(=O)[C@H](CC(=O)O)NC(=O)[C@H](Cc2c[nH]c3ccccc23)NC(=O)[C@H]([C@@H](C)O)NC(=O)[C@H](CC(=O)O)NC1=O)[C@@H](C)O
B3: SEQ ID NO 76 (peptide)
peptide: Ac-MDCNFFDCDAWTW-NH2
modifications: disulfide 3-8
SMILES: CSCC[C@H](NC(C)=O)C(=O)N[C@@H](CC(=O)O)C(=O)N[C@H]1CSSC[C@@H](C(=O)N[C@@H](CC(=O)O)C(=O)N[C@@H](C)C(=O)N[C@@H](Cc2c[nH]c3ccccc23)C(=O)N[C@H](C(=O)N[C@@H](Cc2c[nH]c3ccccc23)C(N)=O)[C@@H](C)O)NC(=O)[C@H](CC(=O)O)NC(=O)[C@H](Cc2ccccc2)NC(=O)[C@H](Cc2ccccc2)NC(=O)[C@H](CC(N)=O)NC1=O
B4: SEQ ID NO 84 (peptide)
peptide: Ac-MWTICNNWHDC[dA]P-NH2
modifications: disulfide 5-11
SMILES: CC[C@H](C)[C@H](NC(=O)[C@@H](NC(=O)[C@H](Cc1c[nH]c2ccccc12)NC(=O)[C@H](CCSC)NC(C)=O)[C@@H](C)O)C(=O)N[C@H]1CSSC[C@@H](C(=O)N[C@H](C)C(=O)N2CCC[C@H]2C(N)=O)NC(=O)[C@H](CC(=O)O)NC(=O)[C@H](Cc2c[nH]cn2)NC(=O)[C@H](Cc2c[nH]c3ccccc23)NC(=O)[C@H](CC(N)=O)NC(=O)[C@H](CC(N)=O)NC1=O
B5: SEQ ID NO 86 (peptide)
peptide: Ac-AWTICNNWHDCWP-NH2
modifications: disulfide 5-11
SMILES: CC[C@H](C)[C@H](NC(=O)[C@@H](NC(=O)[C@H](Cc1c[nH]c2ccccc12)NC(=O)[C@H](C)NC(C)=O)[C@@H](C)O)C(=O)N[C@H]1CSSC[C@@H](C(=O)N[C@@H](Cc2c[nH]c3ccccc23)C(=O)N2CCC[C@H]2C(N)=O)NC(=O)[C@H](CC(=O)O)NC(=O)[C@H](Cc2c[nH]cn2)NC(=O)[C@H](Cc2c[nH]c3ccccc23)NC(=O)[C@H](CC(N)=O)NC(=O)[C@H](CC(N)=O)NC1=O
B6: SEQ ID NO 89 (peptide)
peptide: Ac-MWTICANWHDCWP-NH2
modifications: disulfide 5-11
SMILES: CC[C@H](C)[C@H](NC(=O)[C@@H](NC(=O)[C@H](Cc1c[nH]c2ccccc12)NC(=O)[C@H](CCSC)NC(C)=O)[C@@H](C)O)C(=O)N[C@H]1CSSC[C@@H](C(=O)N[C@@H](Cc2c[nH]c3ccccc23)C(=O)N2CCC[C@H]2C(N)=O)NC(=O)[C@H](CC(=O)O)NC(=O)[C@H](Cc2c[nH]cn2)NC(=O)[C@H](Cc2c[nH]c3ccccc23)NC(=O)[C@H](CC(N)=O)NC(=O)[C@H](C)NC1=O
B7: SEQ ID NO 81 (peptide)
peptide: Ac-[dA]WTICNNWHDCWP-NH2
modifications: disulfide 5-11
SMILES: CC[C@H](C)[C@H](NC(=O)[C@@H](NC(=O)[C@H](Cc1c[nH]c2ccccc12)NC(=O)[C@@H](C)NC(C)=O)[C@@H](C)O)C(=O)N[C@H]1CSSC[C@@H](C(=O)N[C@@H](Cc2c[nH]c3ccccc23)C(=O)N2CCC[C@H]2C(N)=O)NC(=O)[C@H](CC(=O)O)NC(=O)[C@H](Cc2c[nH]cn2)NC(=O)[C@H](Cc2c[nH]c3ccccc23)NC(=O)[C@H](CC(N)=O)NC(=O)[C@H](CC(N)=O)NC1=O
B8: SEQ ID NO 87 (peptide)
peptide: Ac-MWAICNNWHDCWP-NH2
modifications: disulfide 5-11
SMILES: CC[C@H](C)[C@H](NC(=O)[C@H](C)NC(=O)[C@H](Cc1c[nH]c2ccccc12)NC(=O)[C@H](CCSC)NC(C)=O)C(=O)N[C@H]1CSSC[C@@H](C(=O)N[C@@H](Cc2c[nH]c3ccccc23)C(=O)N2CCC[C@H]2C(N)=O)NC(=O)[C@H](CC(=O)O)NC(=O)[C@H](Cc2c[nH]cn2)NC(=O)[C@H](Cc2c[nH]c3ccccc23)NC(=O)[C@H](CC(N)=O)NC(=O)[C@H](CC(N)=O)NC1=O
B9: SEQ ID NO 88 (peptide)
peptide: Ac-MWTACNNWHDCWP-NH2
modifications: disulfide 5-11
SMILES: CSCC[C@H](NC(C)=O)C(=O)N[C@@H](Cc1c[nH]c2ccccc12)C(=O)N[C@H](C(=O)N[C@@H](C)C(=O)N[C@H]1CSSC[C@@H](C(=O)N[C@@H](Cc2c[nH]c3ccccc23)C(=O)N2CCC[C@H]2C(N)=O)NC(=O)[C@H](CC(=O)O)NC(=O)[C@H](Cc2c[nH]cn2)NC(=O)[C@H](Cc2c[nH]c3ccccc23)NC(=O)[C@H](CC(N)=O)NC(=O)[C@H](CC(N)=O)NC1=O)[C@@H](C)O
B10: SEQ ID NO 83 (peptide)
peptide: Ac-MWTICNNWH[dA]CWP-NH2
modifications: disulfide 5-11
SMILES: CC[C@H](C)[C@H](NC(=O)[C@@H](NC(=O)[C@H](Cc1c[nH]c2ccccc12)NC(=O)[C@H](CCSC)NC(C)=O)[C@@H](C)O)C(=O)N[C@H]1CSSC[C@@H](C(=O)N[C@@H](Cc2c[nH]c3ccccc23)C(=O)N2CCC[C@H]2C(N)=O)NC(=O)[C@@H](C)NC(=O)[C@H](Cc2c[nH]cn2)NC(=O)[C@H](Cc2c[nH]c3ccccc23)NC(=O)[C@H](CC(N)=O)NC(=O)[C@H](CC(N)=O)NC1=O
B11: SEQ ID NO 68 (peptide)
peptide: Ac-WTICADWAQCWP-NH2
modifications: disulfide 4-10
SMILES: CC[C@H](C)[C@H](NC(=O)[C@@H](NC(=O)[C@H](Cc1c[nH]c2ccccc12)NC(C)=O)[C@@H](C)O)C(=O)N[C@H]1CSSC[C@@H](C(=O)N[C@@H](Cc2c[nH]c3ccccc23)C(=O)N2CCC[C@H]2C(N)=O)NC(=O)[C@H](CCC(N)=O)NC(=O)[C@H](C)NC(=O)[C@H](Cc2c[nH]c3ccccc23)NC(=O)[C@H](CC(=O)O)NC(=O)[C@H](C)NC1=O
B12: SEQ ID NO 70 (peptide)
peptide: Ac-MWKICSDWQNCWP-NH2
modifications: disulfide 5-11
SMILES: CC[C@H](C)[C@H](NC(=O)[C@H](CCCCN)NC(=O)[C@H](Cc1c[nH]c2ccccc12)NC(=O)[C@H](CCSC)NC(C)=O)C(=O)N[C@H]1CSSC[C@@H](C(=O)N[C@@H](Cc2c[nH]c3ccccc23)C(=O)N2CCC[C@H]2C(N)=O)NC(=O)[C@H](CC(N)=O)NC(=O)[C@H](CCC(N)=O)NC(=O)[C@H](Cc2c[nH]c3ccccc23)NC(=O)[C@H](CC(=O)O)NC(=O)[C@H](CO)NC1=O
B13: SEQ ID NO 71 (peptide)
peptide: Ac-MWHICQEWATCWP-NH2
modifications: disulfide 5-11
SMILES: CC[C@H](C)[C@H](NC(=O)[C@H](Cc1c[nH]cn1)NC(=O)[C@H](Cc1c[nH]c2ccccc12)NC(=O)[C@H](CCSC)NC(C)=O)C(=O)N[C@H]1CSSC[C@@H](C(=O)N[C@@H](Cc2c[nH]c3ccccc23)C(=O)N2CCC[C@H]2C(N)=O)NC(=O)[C@H]([C@@H](C)O)NC(=O)[C@H](C)NC(=O)[C@H](Cc2c[nH]c3ccccc23)NC(=O)[C@H](CCC(=O)O)NC(=O)[C@H](CCC(N)=O)NC1=O
B14: SEQ ID NO 79 (peptide)
peptide: Ac-MSDCWLQWNCPFD-NH2
modifications: disulfide 4-10
SMILES: CSCC[C@H](NC(C)=O)C(=O)N[C@@H](CO)C(=O)N[C@@H](CC(=O)O)C(=O)N[C@H]1CSSC[C@@H](C(=O)N2CCC[C@H]2C(=O)N[C@@H](Cc2ccccc2)C(=O)N[C@@H](CC(=O)O)C(N)=O)NC(=O)[C@H](CC(N)=O)NC(=O)[C@H](Cc2c[nH]c3ccccc23)NC(=O)[C@H](CCC(N)=O)NC(=O)[C@H](CC(C)C)NC(=O)[C@H](Cc2c[nH]c3ccccc23)NC1=O

Bridges are numbered along the chain shown (N, C = ends). [ ]: non-standard residue; d: D form. The star is where a group is joined. DOTA = O=C(O)CN1CCN(CC(=O)O)CCN(CC(=O)*)CCN(CC(=O)O)CC1

This assay addresses T1, DLL3 (target ligand immobilized on a SA sensor chip via streptavidin capture) (Homo sapiens (Human), UniProt Q9NYJ7 27-492, limits assumed).
T1 sequence: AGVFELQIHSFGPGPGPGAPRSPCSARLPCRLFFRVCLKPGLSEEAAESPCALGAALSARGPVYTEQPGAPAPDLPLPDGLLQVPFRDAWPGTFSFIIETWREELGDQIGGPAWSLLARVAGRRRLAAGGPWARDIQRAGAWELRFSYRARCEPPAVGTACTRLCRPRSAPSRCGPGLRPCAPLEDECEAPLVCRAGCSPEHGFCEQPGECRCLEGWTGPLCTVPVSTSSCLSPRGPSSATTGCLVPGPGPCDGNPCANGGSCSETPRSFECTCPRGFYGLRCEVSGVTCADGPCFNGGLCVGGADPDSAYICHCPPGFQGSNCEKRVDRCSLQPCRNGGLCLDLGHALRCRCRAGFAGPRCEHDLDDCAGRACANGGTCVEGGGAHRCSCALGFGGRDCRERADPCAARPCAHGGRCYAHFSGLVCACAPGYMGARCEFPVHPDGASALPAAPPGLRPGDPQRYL
Description: SPR, Biacore S200, target ligand on SA chip, 25 C, 1:1 fit. As to the method:
Target ligand was immobilized on a SA sensor chip via streptavidin capture. A reference surface was set up for nonspecific binding and refractive index changes. For analysis of the kinetics of interactions, varying concentrations of peptides were injected at a flow rate of 50 μL/minute using running buffer containing 20 mM phosphate buffer with 2.7 mM KCl, 137 mM NaCl and 0.05% Surfactant P20. Sensorgram curves were fitted with 1:1 binding model, and affinity and kinetic parameters were obtained using either Biacore S200 evaluation software 1.1.1 or Biacore Insight evaluation 4.0.
What is called Kd is a measure of binding affinity in units of concentration. With B1, the Kd came to 68 nM. With B2, the Kd was determined as 24 nM.

Regarding B3, binding was characterised by a dissociation constant (Kd) of 290 nM. Turning to Ac-MWTICNNWHDCWP-NH2 (disulfide 5-11) [SEQ ID NO 69], binding was put at a Kd of 12 nM. This Kd lies about 24-fold lower than the previous one. In the case of B4 it was 240 nM; in that of B5, 7.6 nM; in that of B6, 8.1 nM. Under B7 stands 6.5 nM; under B8, 53 nM. For the molecule B9, the Kd amounted to 86 nM. This Kd lies about 1.6-fold higher than the previous one. In the case of B10 it was 320 nM.

As to {DOTA}-WTICNNWHDCWP-NH2 (disulfide 4-10) [SEQ ID NO 80], binding was characterised by a dissociation constant (Kd) of 80 nM. In the case of B11 it was 6.1 nM; in that of B12, 340 nM. Turning to B13, the Kd was 47 nM.

For the molecule B14, binding was characterised by a dissociation constant (Kd) of 32 nM.
